Consider 3 molecules from paper PMC6290791, “microRNA-29b mediates fibrotic induction of human xylosyltransferase-I in human dermal fibroblasts via the Sp1 pathway”.

B1: SP1.4 (dsDNA)
DNA 1: CCCAGGCCCCGCCCTCTCCGCCTCG
DNA 2: CGAGGCGGAGAGGGCGGGGCCTGGG
B2: SP1.3 (dsDNA)
DNA 1: TCCTCCCTCGGCTCCTCCCCCAGGC
DNA 2: GCCTGGGGGAGGAGCCGAGGGAGGA
B3: SP1.2 (dsDNA)
DNA 1: CTGATCGCCCCCACCCCCTTCCTTT
DNA 2: AAAGGAAGGGGGTGGGGGCGATCAG

The target in the series is Sp3 (UniProt Q02447 1-781). In words: EMSA; 5 mM MgCl2; 10 mM Tris pH 7.5, 50 mM KCl, 1 mM DTT, 75 ng/ul poly(dI-dC), 0.25 mg/ml BSA, 40 fmol probe, 1 ug protein, 20 min room temperature; Sp3 buffer plus 5% glycerol, 5 mM MgCl2, 0.025% NP-40; 6% PAGE in 0.5x TBE. The note with it: protein: commercial; label: 5'-biotin on both strands; blunt. For orientation: Mobility shift assays separate free from complexed probe on a gel.
Sp3, sequence (Q02447 whole entry): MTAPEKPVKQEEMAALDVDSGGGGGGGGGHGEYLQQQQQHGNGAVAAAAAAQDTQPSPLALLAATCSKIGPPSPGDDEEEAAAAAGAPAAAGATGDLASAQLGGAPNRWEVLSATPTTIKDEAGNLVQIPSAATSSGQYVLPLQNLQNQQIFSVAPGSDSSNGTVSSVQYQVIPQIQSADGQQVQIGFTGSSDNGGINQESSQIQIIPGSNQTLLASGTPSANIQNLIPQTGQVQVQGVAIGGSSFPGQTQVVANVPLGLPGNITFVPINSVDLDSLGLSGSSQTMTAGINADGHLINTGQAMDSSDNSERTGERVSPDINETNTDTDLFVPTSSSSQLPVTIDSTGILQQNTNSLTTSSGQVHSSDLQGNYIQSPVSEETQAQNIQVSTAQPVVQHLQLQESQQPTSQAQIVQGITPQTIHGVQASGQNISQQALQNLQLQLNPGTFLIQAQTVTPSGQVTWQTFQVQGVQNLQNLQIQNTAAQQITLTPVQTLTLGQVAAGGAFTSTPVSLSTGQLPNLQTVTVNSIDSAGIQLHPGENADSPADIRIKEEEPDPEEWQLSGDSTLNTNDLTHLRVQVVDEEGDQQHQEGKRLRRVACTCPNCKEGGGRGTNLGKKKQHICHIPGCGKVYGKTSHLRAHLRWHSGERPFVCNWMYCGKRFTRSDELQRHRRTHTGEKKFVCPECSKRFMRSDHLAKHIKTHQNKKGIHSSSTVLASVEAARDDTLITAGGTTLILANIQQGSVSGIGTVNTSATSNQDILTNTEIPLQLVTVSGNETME
In the case of B1, the binding signal was 83.4 % of strongest band.

As for B2, the binding signal is 100 % of strongest band.

As for B3, the binding signal was 99.3 % of strongest band.
